These sequences were tested on Escherichia coli TOP10 (assay: shrunken log2 fold change of peptide-encoding DNA abundance (4.5 h post-induction vs induction); higher = less antimicrobial activity (less host growth inhibition)). Settings: time post-induction: 4.5 h; library: site-saturation at positions 5, 18, 19, 20.
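Also: peptides expressed intracellularly from a pBAD plasmid library in pooled LB shake-flask culture, induced with 0.3% L-arabinose, DNA abundance read by NGS, three biological replicates, DESeq2 with apeglm shrinkage.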

| Sequence | shrunken log2 fold change |
| --- | --- |
| RRIRLRPPRLPRPRPRPHGGPRP | -0.234 |
| RRIRQRPPRLPRPRPRPCGTPRP | 0.0105 |
| RRIRTRPPRLPRPRPRPDLVPRP | -0.0188 |
| RRIRDRPPRLPRPRPRPFFRPRP | -0.0152 |
| RRIRLRPPRLPRPRPRPLSPPRP | 0.0444 |
| RRIRFRPPRLPRPRPRPCSCPRP | -0.879 |
| RRIRDRPPRLPRPRPRPFIDPRP | 0.168 |
| RRIRVRPPRLPRPRPRPWLRPRP | -0.171 |
| RRIRERPPRLPRPRPRPVYMPRP | -0.481 |
| RRIRLRPPRLPRPRPRPAIQPRP | 0.987 |
| RRIRCRPPRLPRPRPRPFEFPRP | 0.0705 |
| RRIRARPPRLPRPRPRPTGCPRP | 0.458 |
| RRIRARPPRLPRPRPRPWWHPRP | -0.0749 |
| RRIRWRPPRLPRPRPRPISWPRP | 0.0165 |
| RRIRYRPPRLPRPRPRPFPAPRP | -0.467 |
| RRIRDRPPRLPRPRPRPMTHPRP | 0.0105 |
| RRIRMRPPRLPRPRPRPWRWPRP | 0.205 |
| RRIRWRPPRLPRPRPRPRDMPRP | -0.255 |
| RRIRHRPPRLPRPRPRPFRSPRP | -0.000777 |
| RRIRRRPPRLPRPRPRPHICPRP | -0.0887 |
| RRIRGRPPRLPRPRPRPHKPPRP | 0.388 |
| RRIRSRPPRLPRPRPRPPYRPRP | -0.119 |
| RRIRPRPPRLPRPRPRPVMWPRP | 0.385 |
| RRIRMRPPRLPRPRPRPQMCPRP | -0.239 |
| RRIRWRPPRLPRPRPRPFYIPRP | -0.632 |

| Sequence | shrunken log2 fold change |
| --- | --- |
| RRIRERPPRLPRPRPRPMETPRP | 0.015 |
| RRIRTRPPRLPRPRPRPMKLPRP | -0.192 |
| RRIRLRPPRLPRPRPRPCWVPRP | -0.00196 |
| RRIRSRPPRLPRPRPRPEDYPRP | -0.00134 |
| RRIRNRPPRLPRPRPRPCWQPRP | -0.0118 |
| RRIRSRPPRLPRPRPRPKHIPRP | -0.368 |
| RRIRHRPPRLPRPRPRPDNIPRP | -0.207 |
| RRIRMRPPRLPRPRPRPFRIPRP | 0.0254 |
| RRIRARPPRLPRPRPRPKNTPRP | -0.0664 |
| RRIRIRPPRLPRPRPRPTKDPRP | -0.491 |
| RRIRSRPPRLPRPRPRPRTWPRP | 0.0747 |
| RRIRQRPPRLPRPRPRPGEKPRP | 0.139 |
| RRIRGRPPRLPRPRPRPDSLPRP | -0.0456 |
| RRIRRRPPRLPRPRPRPTHRPRP | 0.867 |
| RRIRLRPPRLPRPRPRPKHPPRP | -0.09 |
| RRIRARPPRLPRPRPRPNTPPRP | -0.00444 |
| RRIRDRPPRLPRPRPRPEEYPRP | 0.0208 |
| RRIRARPPRLPRPRPRPEPRPRP | 0.679 |
| RRIRSRPPRLPRPRPRPIKNPRP | -0.399 |
| RRIRGRPPRLPRPRPRPDGAPRP | 1.03 |
| RRIRCRPPRLPRPRPRPKCPPRP | 0.0246 |
| RRIRGRPPRLPRPRPRPVEMPRP | 0.556 |
| RRIRCRPPRLPRPRPRPGWKPRP | 0.173 |
| RRIRNRPPRLPRPRPRPQMMPRP | -0.227 |
| RRIRMRPPRLPRPRPRPDCVPRP | 1.71 |

| Sequence | shrunken log2 fold change |
| --- | --- |
| RRIRWRPPRLPRPRPRPIRPPRP | -0.116 |
| RRIRPRPPRLPRPRPRPLSAPRP | 0.281 |
| RRIRSRPPRLPRPRPRPFLYPRP | -0.442 |
| RRIRSRPPRLPRPRPRPMKRPRP | -0.115 |
| RRIRKRPPRLPRPRPRPVKDPRP | 0.0491 |
| RRIRVRPPRLPRPRPRPPWDPRP | 0.445 |
| RRIRARPPRLPRPRPRPVYFPRP | -0.135 |
| RRIRYRPPRLPRPRPRPPGGPRP | 0.259 |
| RRIRERPPRLPRPRPRPWPCPRP | 0.151 |
| RRIRVRPPRLPRPRPRPTYTPRP | -0.172 |
| RRIRERPPRLPRPRPRPCEIPRP | -0.318 |
| RRIRERPPRLPRPRPRPIDKPRP | -0.321 |
| RRIRERPPRLPRPRPRPLLWPRP | -0.0136 |
| RRIRFRPPRLPRPRPRPSFEPRP | -0.532 |
| RRIRLRPPRLPRPRPRPKYKPRP | -0.486 |
| RRIRNRPPRLPRPRPRPSYRPRP | -0.102 |
| RRIRLRPPRLPRPRPRPGQAPRP | 0.39 |
| RRIRGRPPRLPRPRPRPLCFPRP | 0.705 |
| RRIRPRPPRLPRPRPRPSWEPRP | 0.245 |
| RRIRQRPPRLPRPRPRPNTLPRP | 0.013 |
| RRIRKRPPRLPRPRPRPQWPPRP | 0.124 |
| RRIRERPPRLPRPRPRPIRMPRP | -0.00149 |
| RRIRLRPPRLPRPRPRPNYFPRP | -0.121 |
| RRIRRRPPRLPRPRPRPTFNPRP | 0.077 |
| RRIRGRPPRLPRPRPRPDPSPRP | 0.414 |

| Sequence | shrunken log2 fold change |
| --- | --- |
| RRIRARPPRLPRPRPRPQINPRP | -0.0458 |
| RRIRWRPPRLPRPRPRPHALPRP | -0.118 |
| RRIRLRPPRLPRPRPRPGSSPRP | 0.0118 |
| RRIRERPPRLPRPRPRPHRTPRP | -5.56e-05 |
| RRIRHRPPRLPRPRPRPKEYPRP | -0.0937 |
| RRIRYRPPRLPRPRPRPLQCPRP | -0.344 |
| RRIRLRPPRLPRPRPRPFSWPRP | -0.213 |
| RRIRSRPPRLPRPRPRPHEYPRP | 0.00184 |
| RRIRRRPPRLPRPRPRPADNPRP | 0.111 |
| RRIRFRPPRLPRPRPRPENIPRP | 0.0737 |
| RRIRNRPPRLPRPRPRPYRGPRP | -0.0134 |
| RRIRVRPPRLPRPRPRPTLRPRP | 0.102 |
| RRIRQRPPRLPRPRPRPCAMPRP | -0.0872 |
| RRIRVRPPRLPRPRPRPCCHPRP | -0.217 |
| RRIRKRPPRLPRPRPRPVRYPRP | 0.152 |
| RRIRARPPRLPRPRPRPQIYPRP | -0.354 |
| RRIRKRPPRLPRPRPRPKVFPRP | -0.0531 |
| RRIRDRPPRLPRPRPRPPIFPRP | -0.129 |
| RRIRHRPPRLPRPRPRPYWNPRP | -0.98 |
| RRIRNRPPRLPRPRPRPGWKPRP | -0.00965 |
| RRIRVRPPRLPRPRPRPAFFPRP | 0.084 |
| RRIRSRPPRLPRPRPRPDFCPRP | 0.0315 |
| RRIRARPPRLPRPRPRPFPLPRP | -0.0297 |
| RRIRQRPPRLPRPRPRPCTCPRP | -0.0638 |
| RRIRNRPPRLPRPRPRPCAQPRP | 0.127 |

| Sequence | shrunken log2 fold change |
| --- | --- |
| RRIRWRPPRLPRPRPRPWPRPRP | 0.223 |
| RRIRIRPPRLPRPRPRPQYFPRP | -0.128 |
| RRIRGRPPRLPRPRPRPTHVPRP | 0.483 |
| RRIRCRPPRLPRPRPRPDTVPRP | -0.369 |
| RRIRPRPPRLPRPRPRPDNQPRP | -0.357 |
| RRIRIRPPRLPRPRPRPSAHPRP | -0.202 |
| RRIRLRPPRLPRPRPRPEVPPRP | 0.0129 |
| RRIRKRPPRLPRPRPRPYHIPRP | -0.323 |
| RRIRPRPPRLPRPRPRPADYPRP | 0.0631 |
| RRIRGRPPRLPRPRPRPYGDPRP | -0.176 |
| RRIRTRPPRLPRPRPRPCCEPRP | -0.105 |
| RRIRLRPPRLPRPRPRPYNIPRP | -1.31 |
| RRIRRRPPRLPRPRPRPIHVPRP | 0.03 |
| RRIRIRPPRLPRPRPRPSFKPRP | -0.494 |
| RRIRNRPPRLPRPRPRPLEDPRP | 0.0414 |
| RRIRGRPPRLPRPRPRPHAHPRP | 0.895 |
| RRIRHRPPRLPRPRPRPCRTPRP | 0.00884 |
| RRIRLRPPRLPRPRPRPYDPPRP | -0.109 |
| RRIRCRPPRLPRPRPRPKEYPRP | -0.207 |
| RRIRVRPPRLPRPRPRPCHWPRP | 0.169 |
| RRIRTRPPRLPRPRPRPRIYPRP | -0.304 |
| RRIRWRPPRLPRPRPRPSSCPRP | -0.0941 |
| RRIRGRPPRLPRPRPRPYDYPRP | -0.15 |
| RRIRQRPPRLPRPRPRPVHAPRP | 0.0261 |
| RRIRWRPPRLPRPRPRPEMVPRP | -0.222 |

| Sequence | shrunken log2 fold change |
| --- | --- |
| RRIRKRPPRLPRPRPRPMYGPRP | 0.00748 |
| RRIRGRPPRLPRPRPRPSMTPRP | 2.35 |
| RRIRARPPRLPRPRPRPCYTPRP | -0.486 |
| RRIRKRPPRLPRPRPRPNHGPRP | -0.0607 |
| RRIRRRPPRLPRPRPRPKIPPRP | 0.0427 |
| RRIRLRPPRLPRPRPRPWPHPRP | 0.0514 |
| RRIRNRPPRLPRPRPRPSCRPRP | 0.0168 |
| RRIRHRPPRLPRPRPRPTALPRP | 0.0443 |
| RRIRRRPPRLPRPRPRPVSFPRP | 0.178 |
| RRIRIRPPRLPRPRPRPQPVPRP | -0.169 |
| RRIRHRPPRLPRPRPRPKEFPRP | -0.0336 |
| RRIRVRPPRLPRPRPRPIWPPRP | -0.0228 |
| RRIRTRPPRLPRPRPRPGDQPRP | -0.0663 |
| RRIRNRPPRLPRPRPRPHCSPRP | -0.095 |
| RRIRPRPPRLPRPRPRPHGGPRP | 0.216 |
| RRIRGRPPRLPRPRPRPLYYPRP | -0.13 |
| RRIRRRPPRLPRPRPRPWYMPRP | -0.0284 |
| RRIRERPPRLPRPRPRPMPCPRP | -0.0207 |
| RRIRMRPPRLPRPRPRPWRKPRP | 0.506 |
| RRIRVRPPRLPRPRPRPGWAPRP | 0.228 |
| RRIRSRPPRLPRPRPRPRVRPRP | 0.217 |
| RRIRFRPPRLPRPRPRPVIHPRP | -0.182 |
| RRIRDRPPRLPRPRPRPQSAPRP | 0.138 |
| RRIRKRPPRLPRPRPRPLQGPRP | 0.154 |
| RRIRARPPRLPRPRPRPYWTPRP | -0.16 |
